These results are taken from patent publication US11787850B2, “Peptidic TGF-beta antagonists” (priority 2015, dated 2023).

The nature of this data set: Size-exclusion chromatography on Superdex Peptide 10/300GL column. The class given is physicochemical. The conditions noted are these: for formation of aggregates by size-exclusion chromatography: peptide in PBS, Superdex Peptide 10/300GL, 0.6 ml/min; for Aggregation?: size-exclusion chromatography, peptide dissolved in PBS. The protocol: Approximately 200 μg of each peptide X (40 amino acids), X-1 (28 amino acids), peptide A (161 amino acids), P11 (11 amino acids), P16 (16 amino acids), P21 (21 amino acids, P16-2 (16 amino acids, scrambled sequence control), X-3 (16 amino acids) and X-4 (11 amino acids) were dissolved in phosphate-buffered saline (PBS) and loaded onto a Superdex Peptide 10/300GL column. The column was eluted with PBS at a flow rate of 0.6 mL/min and eluents were analyzed for peptide content by measuring relative absorbance at a wavelength of 215 nm. (FIGS. 3A and 3B) The data is plotted with relative absorbance (Y-axis) against elution volume (X-axis). Peptides 1-9 are color coded (A—peptides (1) to (5); B (peptides (6) to (9)). As shown on panel A, peptide X (peptide 1, black line) elution profile indicated two major peaks at approximately 8 mL and 11 mL which correspond to molecular weights greater than 12.4 kDa. The theoretical molecular weight of peptide X is 4.7 kDa which is expected to elute from the column at approximately 15 mL. Under the conditions tested, peptide X existed as high molecular weight aggregates with minimal soluble (monomeric) form. On the other hand, P16 (peptide 5, green line) elution profile indicated a broad peak between 14-22 mL which is expected to contain peptides of between 0.1 and 6 kDa and is consistent with its theoretical molecular weight of 2.01 kDa.
FIG. 4 illustrates the standard curve used for size-exclusion chromatography of standard peptides using the Superdex Peptide 10/300 GL column (results provided in FIG. 3). A pool of standard peptides of various molecular weights (1. cytochrome c (Mr 12.384 kDa) 1 mg/mL; 2. aprotinin (Mr 6.512 kDa) 2 mg/mL; 3. vitamin B12 (Mr 1.355 kDa) 0.1 mg/mL; 4. (Gly)3 (Mr 0.189 kDa) 0.1 mg/mL; 5. Gly (Mr 0.075 kDa) 7.8 mg/mL) were subjected to size-exclusion chromatography using the Superdex Peptide 10/300 GL column (flow rate 0.5 ml/min at room temperature, sample volume of 50 μL, eluent 0.05M phosphate, 0.15 M NaCl, ph 7.0). The resulting chromatogram (absorbance at 215 nm (in mAU, left Y axis) and conductivity (in mS/cm, right Y axis, in function of volume of elution (in mL)) indicates the elution profiles of the above peptides with high MW peptides eluting in earlier fractions and lower MW peptides eluting in later fractions as expected. The molecular weights of peptides were plotted against elution volume generating a standard curve (not shown).
More specifically, approximately […] of each peptide X (40 amino acids), X-1 (28 amino acids), peptide A (161 amino acids), P11 (11 amino acids), P16 (16 amino acids), P21 (21 amino acids, P16-2 (16 amino acids, scrambled sequence control), X-3 (16 amino acids) and X-4 (11 amino acids) were dissolved in phosphate-buffered saline (PBS) and loaded onto a Superdex Peptide 10/300GL column. The column was eluted with PBS at a flow rate of 0.6 ml/min and eluants were analyzed for peptide content by measuring relative absorbance at a wavelength of 215 nm. The data were plotted with relative absorbance (Y-axis) against elution volume (X-axis). […] The theoretical molecular weight of peptide X is 4.7 kDa which is expected to elute from the column at approximately 15 mL. […] P16 (peptide 5) elution profile indicated a peak between 14-22 mL which was expected to contain peptides of between 0.1 and 6 kDa and is consistent with its theoretical molecular weight of 2.01 kDa.
More specifically, a pool of standard proteins of various molecular weights were subjected to size-exclusion chromatography using the Superdex Peptide 10/300 GL column. The resulting chromatogram indicated the elution profiles of the peptides with high molecular weight peptides eluting in earlier fractions and lower molecular weight peptides eluting in later fractions as expected. The molecular weights of peptides were plotted against elution volume generating a standard curve (not shown) and was used to calculate molecular weights of the CD109-based peptides. […]
On the technique in general: In gel filtration, larger molecules generally elute earlier.

Regarding ETWIWLDTNMGSRIYQ [Peptide P16], the “formation of aggregates by size-exclusion chromatography” value is recorded as “did not” and the “Aggregation?” value was “Not aggregated”.

With “LGSSPHVRKHFPETWIWLDTNMGSRIYQEFEVTVPDSITS (Peptide X)”, the “formation of aggregates by size-exclusion chromatography” value is reported as “formed aggregates” and the “Aggregation?” value is listed as “Aggregated”. The “molecular weights corresponding to the elution peaks” value (PBS, theoretical MW peptide X 4.7 kDa, P16 2.01 kDa) is recorded as “greater than 12.4 kDa”.
